{"source": "IntAct's records for PubMed 25394380", "target": "aph1a_human APH1A (UniProt Q96BI3)", "sequence (Q96BI3 whole entry)": "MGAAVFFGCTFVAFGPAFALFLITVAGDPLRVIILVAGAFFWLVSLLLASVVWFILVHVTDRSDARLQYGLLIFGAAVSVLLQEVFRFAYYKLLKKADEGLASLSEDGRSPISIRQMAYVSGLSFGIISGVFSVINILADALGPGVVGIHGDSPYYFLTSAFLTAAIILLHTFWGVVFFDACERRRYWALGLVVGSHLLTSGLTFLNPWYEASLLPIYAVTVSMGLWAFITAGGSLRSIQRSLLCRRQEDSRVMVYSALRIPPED", "data": [{"substance": "Presenilin-1 (Homo sapiens) (from UniProt P49768) G206D", "values": [{"measurement": "effect of a mutation on the interaction", "result": "with no effect"}]}]}
